Test results taken from patent US6353089B1, “Method for stimulating CTLs with peptides” (Ludwig Institute for Cancer Research, priority 1994, dated 2002).
Each block holds one sequence with its values, some of them ahead of it.

How the values were obtained:
HLA-A2 molecules = biological target: T1, HLA-A2 molecules (Homo sapiens, UniProt P04439, D140Y/D185E/D98H/E176V/E277Q/G131W/G231S/I119V/I121R/I166T/I218V/L300P/L318F/N151K/N90K/P208A/P217A/Q86G/Q94H/R138H/R169H/T345S); assay: HLA-A2 binding (stabilization) assay on T2 cells, mean fluorescence ratio; settings: peptide 0.1 mM
T1 construct: endogenous in cells; host or cells: 174 CEM.T2 (T2) cells
From the text: To determine whether or not peptides bound to HLA-A2 molecules, cell line 174 CEM.T2 (hereafter “T2”) was used. This cell line is described by Cerundolo et al., Nature 345: 449-452 (1990), and Spies et al., Nature 348: 744-747 (1990), the disclosures of which are incorporated by reference. This is a cell line deficient in the pathway which supplies peptides to the endoplasmic reticulum, the site of assembly of MHC class I heterodimers. It can assemble MHC class-I molecules, but these are unstable, and, on cell lysis, dissociate into free heavy and light chains during overnight incubation. The heterodimers can, however, be stabilized in vitro via addition of appropriate peptide ligands, as per Townsend et al., Nature 340: 443-448 (1989); Townsend et al., Cell 62: […] (1990); Cerundolo et al., supra; Schumacher et al., Nature 350: 703-706 (1991); Elliot et al., Nature 351: 402-406 (1991); Elvin et al., Eur. J. Immunol. 21 : 2025-2031 (1991). The thus stabilized molecules can be immunoprecipitated with antibodies specific for the MHC class-I molecule.
In light of this background, the T2 cells were washed in serum free IMDM medium, and then 1.0×10^6 cells were suspended in 400 ul of the serum free IMDM medium, together with 100 ul synthetic peptide (final concentration: 0.1 mM, 1% DMSO). The mixture was incubated, overnight, at 37° C. Following incubation, the cells were washed and stained, successively, with HLA-A2 specific monoclonal antibody BB7.2, and FITC labelled, binding fragments of polyclonal goat anti-mouse IgG. Fluorescence ratio was calculated by the following formula: [formula]
This yielded the “mean fluorescence ratio” or MFR. In accordance with Nijman et al, supra, an MFR greater than 1.5 indicates binding to HLA-A2.

T2 cells = assay: chromium release assay with CTL 4.2, T2 target cells; assay type: cell-based; settings: for % 51CR Release: T2 + peptide
Experimental: The CTL clone was obtained using T2 cells, in accordance with Houbiers et al., Eur. J. Immunol. 23: 2072 (1993), previously incorporated by reference in its entirety.
Once the CTL clone was isolated, it was used in a chromium release assay in accordance with Boon, et al., J. Exp. Med. 152: 1184 (1980) the disclosure of which is incorporated by reference in its entirety. In addition to T2, cell line SK23, which is an HLA-A2 presenting line, was tested. The results are presented below:
Effector Cell (E): CTL 4.2 Target (T): HLA-A2 cell plus SEQ ID NO: 4

[1] = overnight 37° C., BB7.2 staining, MFR greater than 1.5 indicates binding to HLA-A2

Sequence: ALSRKVAEL [Peptide M3-108.116, MAGE-3 derived peptide]
MFR (mean fluorescence ratio) (HLA-A2 molecules; in some of the experimental runs): < 1.5) | MFR (mean fluorescence ratio) (HLA-A2 molecules; [1]): 2.17 (and, less than

Sequence: KIWEELSVL [Peptide M3-220.228]
% 51CR Release (T2 cells; effector CTL 4.2, E/T ratio 0.5): 57% | % 51CR Release (T2 cells; effector CTL 4.2, E/T ratio 1.9): 84% | % 51CR Release (T2 cells; effector CTL 4.2, E/T ratio 7.5): 88% | % 51CR Release (T2 cells; effector CTL 4.2, E/T ratio 30): 91% | lysis of peptide-pulsed target cells by cytolytic T cell clone 4.2 (T2 cells; target cells (T2, SK23) pulsed with peptide, no lysis in the absence of the peptide): specifically lysed

Sequence: TLVEVTLGEV [Peptide M3-44.53]
MFR (mean fluorescence ratio) (HLA-A2 molecules; [1]): 3.5

The remaining lines, values ahead:

MFR (mean fluorescence ratio) (HLA-A2 molecules; [1]): 1.8 (and, less than
Sequence: ALVETSYVKV [Peptide M3-277.286, MAGE-3 derived peptide]

MFR (mean fluorescence ratio) (HLA-A2 molecules; [1]): 2.37
Sequence: IMPKAGLLI [Peptide M3-195.203]
